system: Escherichia coli TOP10; assay: shrunken log2 fold change of peptide-encoding DNA abundance (4.5 h post-induction vs induction); higher = less antimicrobial activity (less host growth inhibition); details: time post-induction: 4.5 h; library: site-saturation at positions 5, 18, 19, 20
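Note: peptides expressed intracellularly from a pBAD plasmid library in pooled LB shake-flask culture, induced with 0.3% L-arabinose, DNA abundance read by NGS, three biological replicates, DESeq2 with apeglm shrinkage.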

Sequence | shrunken log2 fold change
RRIRWRPPRLPRPRPRPMYQPRP | -0.0254
RRIRFRPPRLPRPRPRPYLAPRP | -0.425
RRIRDRPPRLPRPRPRPHAQPRP | -0.0623
RRIRHRPPRLPRPRPRPIRLPRP | -0.0644
RRIRNRPPRLPRPRPRPRGCPRP | 0.366
RRIRHRPPRLPRPRPRPGMAPRP | 0.0763
RRIRCRPPRLPRPRPRPFITPRP | -0.639
RRIRCRPPRLPRPRPRPRWSPRP | 0.422
RRIRSRPPRLPRPRPRPNNDPRP | -0.503
RRIRMRPPRLPRPRPRPFEHPRP | -0.327
RRIRFRPPRLPRPRPRPRIWPRP | 0.051
RRIRCRPPRLPRPRPRPPRGPRP | 0.67
RRIRPRPPRLPRPRPRPACSPRP | 0.184
RRIRDRPPRLPRPRPRPYMLPRP | -0.153
RRIRCRPPRLPRPRPRPRPMPRP | 0.443
RRIRKRPPRLPRPRPRPDVGPRP | 0.0262
RRIRMRPPRLPRPRPRPAAMPRP | 0.915
RRIRTRPPRLPRPRPRPWALPRP | -0.23
RRIRFRPPRLPRPRPRPGIIPRP | -0.139
RRIRDRPPRLPRPRPRPEWRPRP | 1.08
RRIRVRPPRLPRPRPRPALGPRP | 0.423
RRIRSRPPRLPRPRPRPLHEPRP | 0.339
RRIRSRPPRLPRPRPRPRREPRP | 0.416
RRIRLRPPRLPRPRPRPGYVPRP | -0.17
RRIRWRPPRLPRPRPRPHGSPRP | 0.173

Sequence | shrunken log2 fold change
RRIRVRPPRLPRPRPRPQLEPRP | 0.144
RRIRGRPPRLPRPRPRPGGSPRP | 0.92
RRIRFRPPRLPRPRPRPMIYPRP | -0.441
RRIRRRPPRLPRPRPRPIRQPRP | 0.00198
RRIRARPPRLPRPRPRPLDIPRP | 0.0659
RRIRMRPPRLPRPRPRPDSGPRP | -0.01
RRIRMRPPRLPRPRPRPTPGPRP | 1.13
RRIRFRPPRLPRPRPRPWGMPRP | -0.171
RRIRVRPPRLPRPRPRPVDEPRP | 0.144
RRIRERPPRLPRPRPRPMTHPRP | -0.0346
RRIRDRPPRLPRPRPRPVKEPRP | -0.0586
RRIRQRPPRLPRPRPRPDINPRP | -0.412
RRIRFRPPRLPRPRPRPAIQPRP | -0.102
RRIRHRPPRLPRPRPRPCGAPRP | 0.0817
RRIRSRPPRLPRPRPRPTHEPRP | -0.0435
RRIRERPPRLPRPRPRPDWNPRP | -0.631
RRIRLRPPRLPRPRPRPRHKPRP | 0.258
RRIRARPPRLPRPRPRPPIRPRP | -0.131
RRIRRRPPRLPRPRPRPQYLPRP | -0.0489
RRIRFRPPRLPRPRPRPYESPRP | 0.0128
RRIRFRPPRLPRPRPRPLRIPRP | 0.00235
RRIRWRPPRLPRPRPRPEKAPRP | -0.0225
RRIRNRPPRLPRPRPRPEDAPRP | -0.00133
RRIRGRPPRLPRPRPRPRHYPRP | 0.173
RRIRQRPPRLPRPRPRPPLAPRP | 0.691

Sequence | shrunken log2 fold change
RRIRYRPPRLPRPRPRPDAYPRP | -0.599
RRIRDRPPRLPRPRPRPSEYPRP | -0.0118
RRIRRRPPRLPRPRPRPHKWPRP | 2.57
RRIRPRPPRLPRPRPRPTNYPRP | -0.542
RRIRVRPPRLPRPRPRPTLTPRP | -0.0107
RRIRYRPPRLPRPRPRPDCDPRP | -0.124
RRIRQRPPRLPRPRPRPVCPPRP | -0.0461
RRIRDRPPRLPRPRPRPPRSPRP | 1.11
RRIRDRPPRLPRPRPRPYCHPRP | -0.121
RRIRLRPPRLPRPRPRPAVKPRP | -0.131
RRIRWRPPRLPRPRPRPLSHPRP | 0.000856
RRIRYRPPRLPRPRPRPYVLPRP | -0.35
RRIRCRPPRLPRPRPRPDIHPRP | -0.468
RRIRYRPPRLPRPRPRPCNTPRP | -0.425
RRIRERPPRLPRPRPRPNPSPRP | -0.162
RRIRRRPPRLPRPRPRPHHGPRP | -0.249
RRIRFRPPRLPRPRPRPHVMPRP | -0.288
RRIRGRPPRLPRPRPRPYRDPRP | 0.528
RRIRNRPPRLPRPRPRPYSQPRP | -0.0488
RRIRTRPPRLPRPRPRPTRAPRP | 0.687
RRIRPRPPRLPRPRPRPTTKPRP | 0.253
RRIRHRPPRLPRPRPRPSNPPRP | -0.219
RRIRRRPPRLPRPRPRPWPRPRP | 0.349
RRIRPRPPRLPRPRPRPDPEPRP | 0.136
RRIRDRPPRLPRPRPRPKCDPRP | 0.0437

Source: the supplement of paper PMC9112550, “Optimization of the antimicrobial peptide Bac7 by deep mutational scanning” (BMC Biology, 2022)
